Assay results from US20060234285A1 (Human Genome Sciences, published 2006).

How the values were obtained:
Experiment in all cases: flow cytometry on transiently transfected cells
[1] = molecular target: T1, DR6, on transiently transfected cells (UniProt O75509 42-655, limits assumed)
T1 construct: whole, on cells
T1 sequence (looked up): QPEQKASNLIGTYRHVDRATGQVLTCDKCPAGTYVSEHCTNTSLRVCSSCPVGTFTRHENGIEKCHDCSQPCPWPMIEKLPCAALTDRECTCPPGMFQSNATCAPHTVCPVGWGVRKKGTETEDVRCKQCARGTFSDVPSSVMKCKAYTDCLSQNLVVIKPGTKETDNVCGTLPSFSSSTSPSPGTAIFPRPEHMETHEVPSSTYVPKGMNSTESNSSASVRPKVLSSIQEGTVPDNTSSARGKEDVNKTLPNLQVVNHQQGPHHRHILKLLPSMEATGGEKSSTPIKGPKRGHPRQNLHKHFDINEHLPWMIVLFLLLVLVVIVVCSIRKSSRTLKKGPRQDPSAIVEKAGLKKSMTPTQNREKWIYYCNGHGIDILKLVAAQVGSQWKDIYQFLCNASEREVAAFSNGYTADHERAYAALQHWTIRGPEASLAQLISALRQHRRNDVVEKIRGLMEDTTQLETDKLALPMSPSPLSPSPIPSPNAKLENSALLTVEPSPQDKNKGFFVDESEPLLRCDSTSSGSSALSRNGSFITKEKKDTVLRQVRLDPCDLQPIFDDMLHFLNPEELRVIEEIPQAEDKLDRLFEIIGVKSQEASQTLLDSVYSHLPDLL
Experimental: (§1) One million cells, in 0.1 ml of FACS buffer (PBS, 0.1% BSA, 0.1% NaN₃), were incubated with 0.1-1 microgram of protein or antibody at RT for 15 min. The cells were washed with 3 ml of FACS buffer, reacted with biotinylated primary antibody, and stained with PE-conjugated secondary antibody at RT for 15 min. Cells were then washed again, resuspended in 0.5 microgram/ml of propidium iodide, and live cells were gated and analyzed on a FACScan using the CellQuest software (BD Biosciences).

[2] = molecular target: T2, DcR1, on transiently transfected cells (UniProt O14798 26-236, limits assumed)
T2 construct: whole, on cells
T2 sequence (looked up): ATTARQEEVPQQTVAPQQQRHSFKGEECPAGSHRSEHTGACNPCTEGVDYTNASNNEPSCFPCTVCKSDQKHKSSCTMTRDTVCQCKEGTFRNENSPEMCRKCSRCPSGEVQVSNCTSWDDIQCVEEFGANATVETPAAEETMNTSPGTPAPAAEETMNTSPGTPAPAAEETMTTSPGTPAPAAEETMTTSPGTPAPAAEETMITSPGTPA
Experimental: as §1

[3] = molecular target: T3, DR4, on transiently transfected cells (UniProt O00220 24-468, limits assumed)
T3 construct: whole, on cells
T3 sequence (looked up): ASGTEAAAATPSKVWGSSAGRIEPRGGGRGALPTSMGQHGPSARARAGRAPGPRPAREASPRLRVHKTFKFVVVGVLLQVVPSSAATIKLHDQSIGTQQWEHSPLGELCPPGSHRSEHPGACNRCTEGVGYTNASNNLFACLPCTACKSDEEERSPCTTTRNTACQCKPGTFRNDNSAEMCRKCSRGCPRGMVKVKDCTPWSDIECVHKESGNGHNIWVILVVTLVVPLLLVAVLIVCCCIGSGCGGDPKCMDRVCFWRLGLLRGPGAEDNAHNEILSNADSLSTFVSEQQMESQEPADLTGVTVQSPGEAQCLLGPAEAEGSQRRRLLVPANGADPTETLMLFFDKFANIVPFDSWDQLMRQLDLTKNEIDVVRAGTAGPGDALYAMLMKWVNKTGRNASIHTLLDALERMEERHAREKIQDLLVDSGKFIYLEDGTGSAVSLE
Experimental: as §1

[4] = molecular target: T4, HveA, on transiently transfected cells (UniProt Q92956 39-283, limits assumed)
T4 construct: whole, on cells
T4 sequence (looked up): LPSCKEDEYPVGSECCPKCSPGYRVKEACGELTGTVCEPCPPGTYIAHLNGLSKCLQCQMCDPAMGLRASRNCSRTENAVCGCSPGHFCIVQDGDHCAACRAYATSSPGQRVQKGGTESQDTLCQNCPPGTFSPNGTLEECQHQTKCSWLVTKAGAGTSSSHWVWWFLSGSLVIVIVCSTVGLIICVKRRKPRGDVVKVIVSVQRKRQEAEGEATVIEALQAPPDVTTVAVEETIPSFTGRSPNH
Experimental: as §1

[5] = molecular target: T5, TNFR2, on transiently transfected cells (UniProt P20333 23-461, limits assumed)
T5 construct: whole, on cells
T5 sequence (looked up): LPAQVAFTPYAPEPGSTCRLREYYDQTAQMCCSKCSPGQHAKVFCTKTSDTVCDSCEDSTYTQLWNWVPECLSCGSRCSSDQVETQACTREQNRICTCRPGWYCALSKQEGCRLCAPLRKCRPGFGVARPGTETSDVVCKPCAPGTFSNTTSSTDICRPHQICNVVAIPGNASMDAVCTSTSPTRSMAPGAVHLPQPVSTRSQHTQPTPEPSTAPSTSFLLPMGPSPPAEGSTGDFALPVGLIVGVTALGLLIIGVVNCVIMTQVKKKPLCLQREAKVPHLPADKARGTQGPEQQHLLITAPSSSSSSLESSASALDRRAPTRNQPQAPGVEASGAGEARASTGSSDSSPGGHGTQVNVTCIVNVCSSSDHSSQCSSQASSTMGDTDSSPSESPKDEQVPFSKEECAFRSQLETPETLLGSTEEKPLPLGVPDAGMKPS
Experimental: as §1

Measured: binding result

B1: FLAG-tagged soluble form of TNF-gamma-beta (aa 72-251) (ligand, human, UniProt O95150 72-251, looked up, not shown: small tags and cut ends)
chain: LKGQEFAPSHQQVYAPLRADGDKPRAHLTVVRQTPTQHFKNQFPALHWEHELGLAFTKNRMNYTNKFLLIPESGDYFIYSQVTFRGMTSECSEIRQAGRPNKPDSITVVITKVTDSYPEPTQLLMGTKSVCEVGSNWFQPIYLGAMFSLQEGDKLMVNVSDISLVDYTKEDKTFFGAFLL
notes: also called FLAG-TL1β; FLAG-TNF-gamma-beta
no binding: all assays above
